Measured values reported in PMC4908374, “A humanized anti-DLL4 antibody promotes dysfunctional angiogenesis and inhibits breast tumor growth” (Scientific Reports, 2016).
“And” between values parts separate entries of the source, which are not always exact repeats. Equal values may be shown once.

Molecular target: T1, rhDLL4 (recombinant human Delta-like 4) (Homo sapiens, UniProt Q9NR61)
T1 construct: Delta-like 4 (DLL4), human, recombinant
Assay: SPR; Biacore X100; HCLC or H3L2 captured (up to 2,000 RU) by anti-human IgG Fc antibody immobilised on a CM5 chip; rhDLL4 up to 100 nM flowed; 25 °C, 30 μl/min; 1:1 binding model; KD from kd/ka
Conditions: both partners purified

T1 sequence (Q9NR61 27-685, stated change not applied): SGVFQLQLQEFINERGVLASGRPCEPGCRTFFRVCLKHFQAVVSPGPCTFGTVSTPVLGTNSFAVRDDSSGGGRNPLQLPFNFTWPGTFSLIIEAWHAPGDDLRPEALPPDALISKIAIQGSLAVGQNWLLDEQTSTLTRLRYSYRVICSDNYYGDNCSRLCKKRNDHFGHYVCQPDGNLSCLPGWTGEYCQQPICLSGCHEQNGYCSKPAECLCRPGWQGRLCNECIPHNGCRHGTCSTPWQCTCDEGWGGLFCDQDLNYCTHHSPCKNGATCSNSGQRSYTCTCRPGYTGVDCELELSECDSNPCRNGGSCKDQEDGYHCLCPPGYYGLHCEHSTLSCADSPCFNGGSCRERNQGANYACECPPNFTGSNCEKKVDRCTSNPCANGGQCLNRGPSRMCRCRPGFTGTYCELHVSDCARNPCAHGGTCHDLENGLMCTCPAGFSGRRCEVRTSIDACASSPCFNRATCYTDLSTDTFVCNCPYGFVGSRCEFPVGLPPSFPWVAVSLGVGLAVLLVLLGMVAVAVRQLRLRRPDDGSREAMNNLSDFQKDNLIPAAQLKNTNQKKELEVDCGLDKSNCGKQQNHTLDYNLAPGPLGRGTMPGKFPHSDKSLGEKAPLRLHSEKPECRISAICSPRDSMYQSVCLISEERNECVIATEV

Row | Kd | koff | kon | Binder
1 | 1.14 pM and 1.41 pM | 2.42e-05 s⁻¹ | 1.72e+07 M⁻¹ s⁻¹ | HCLC, murine-human chimeric anti-DLL4 antibody (VH and VL of MMGZ01 on human constant regions) (antibody, V domains shown, as the VH of m6; as the VL of m6; Full-length IgG1; also called chimeric antibody; source: CHO-s, transiently transfected, in supernatant) VH: EVQLEESGTELARPGASVKLSCKASGYIFSGYWMQWIKQRPGQGLEWIGAIYPGDGDTRYTQKFKGKATLTADKSSSTAYMQLSSLASEDSAVYYCAGGNFFFDYWGLGTTLAVSS VL: DIVITQSPALMAASPGEKVTITCSVSSSISSSYLHWYQQKSGISPKPWIYGTSNLASGVPARFSGSGSGTSYSLTITSMEAEDAATYYCQQWSSSPLTFGAGTKLELK
2 | 2.26 pM | 2.59e-05 s⁻¹ | 1.15e+07 M⁻¹ s⁻¹ | H3L2, humanized anti-DLL4 antibody (VH3, VL2) (antibody, V domains shown, Full-length IgG1; also called humanized antibody; source: CHO-s, transiently transfected, in supernatant) VH: QVQLVQSGAEVKKPGSSVKVSCKASGYTFSGYWMQWIKQAPGQGLEWIGAIYPGDGDTRYTQKFKGRATLTADKSTSTAYMELSSLRSEDTAVYYCAGGNFFFDYWGQGTLVTVSS VL: EIVITQSPDFQSVTPKEKVTITCSVSSSISSSYLHWYQQKPDQSPKPWIYGTSNLASGVPSRFSGSGSGTDYTLTINSLEAEDAATYYCQQWSSSPLTFGQGTKLEIK
